Assay results taken from the DeepSol protein solubility set.

Assay: soluble on expression in E. coli; label from the status in PepcDB or PDB records

| Sequence | soluble on expression in E. coli |
| --- | --- |
| MPPSPLDDRVVVALSRPVRPQDLNLCLDSSYLGSANPGSNSHPPVIATTVVSLKAANLTYMPSSSGSARSLNCGCSSASCCTVATYDKDNQAQTQAIAAGTTTTAIGTSTTCPANQMVNNNENTGSLSPSSGVGSPVSGTPKQLASIKIIYPNDLAKKMTKCSKSHLPSQGPVIIDCRPFMEYNKSHIQGAVHINCADKISRRRLQQGKITVLDLISCREGKDSFKRIFSKEIIVYDENTNEPSRVMPSQPLHIVLESLKREGKEPLVLKGGLSSFKQNHENLCDNSLQLQECREVGGGASAASSLLPQPIPTTPDIENAELTPILPFLFLGNEQDAQDLDTMQRLNIGYVINVTTHLPLYHYEKGLFNYKRLPATDSNKQNLRQYFEEAFEFIEEAHQCGKGLLIHCQAGVSRSATIVIAYLMKHTRMTMTDAYKFVKGKRPIISPNLNFMGQLLEFEEDLNNGVTPRILTPKLMGVETVV | soluble |
| MPPVCGRRCSRTGEIRGYSGSIVRRWKRVETRDGPRFRSSLAPHEAALLKNLAGAMIGLLDDRDSSSPSDELEEITGIKTGHAQRPGDPTLRRLLPDFYRPDDLDDDDPTAVDGSESFNAALRSLHEPEIIDAKRVAAQQLLDTVPDNGGRLELTESDANAWIAAVNDLRLALGVMLEIGPRGPERLPGNHPLAAHFNVYQWLTVLQEYLVLVLMGSR | not soluble |
| MPQDVDFHIPLPGRQSPDHARAEAEQLAWPRSLGLIRSDAAAERHLRGGYADLASRFYPHATGADLDLGVDLMSWFFLFDDLFDGPRGENPEDTKQLTDQVAAALDGPLPDTAPPIAHGFADIWRRTCEGMTPAWCARSARHWRNYFDGYVDEAESRFWNAPCDSAAQYLAMRRHTIGVQPTVDLAERAGRFEVPHRVFDSAVMSAMLQIAVDVNLLLNDIASLEKEEARGEQNNMVMILRREHGWSKSRSVSHMQNEVRARLEQYLLLESCLPKVGEIYQLDTAEREALERYRTDAVRTVIRGSYDWHRSSGRYDAEFALAAGAQGYLEELGSSAH | soluble |
| MPQLSPWQHYQKDLTRDGFSHDPAQEIAVKALQRVYEDLTAAEEPNSLFGKLFTSFGLTSAPAPTKGLYLWGGVGRGKTYLMDTFFDTLPGNQKLRAHFHRFMHQLHLDLDALKGTRDPLLVIAKQMAAKYRVICFDEFFVSDITDAMLLGTLFQALFKEGVVLVATSNIIPDDLYKNGLQRARFLPAIALINQHCEVLNVDSGIDYRLRTLEQAEIYHHPLDEQADTNLLRYFGQLAPEAEISTEAIEIEGRAISIRQQAQGVLLADFRALCDGPRSQRDYMELARIYHTVLVSGIEQMGAFLTGDDIARRFLAMVDEFYERNVKLIVSAQVPLEDIYADGLLSFEFRRCRSRLIEMQSHDYLKSEHLPAAALEHHHHHH | soluble |
| MPQQKNFVTMPAQHQNKQPGIESLMNPLPQFEDPNYKGSEKLKGKNVLITGGDSGIGRAVSIAFAKEGANIAIAYLDEEGDANETKQYVEKEGVKCVLLPGDLSDEQHCKDIVQETVRQLGSLNILVNNVAQQYPQQGLEYITAEQLEKTFRINIFSYFHVTKAALSHLKQGDVIINTASIVAYEGNETLIDYSATKGAIVAFTRSLSQSLVQKGIRVNGVAPGPIWTPLIPSSFDEKKVSQFGSNVPMQRPGQPYELAPAYVYLASSDSSYVTGQMIHVNGGVIVNG | not soluble |
| MPRDNSSSSRRRRGSKRCPTGMSSNKTSRSTSSSSVTSSSGHGASSFSEDSSVRSVTNSVRSTRSAGSIMSMASAEASVVAPDLTIYHGDRKQSYQLADKGKMVVINRKNGVIVYMLRCVDGRRVYIEKSSEGASLILTNQRGKVIKALAGHY | not soluble |
| MPRGYKNPRVVPDNVERVISAYTPVPGTLAWGVVWEDPFAEFVRECARDLGLPATASDDVIRGNLRLIASFVAWVIHEYDCPLRRDEIFDYILAEAYAMSVIYVRDGHGKGTSNKVRGIRRSMLTKIGWKMNKHFGEPHKHTLPQEGALEPYKQWQLNKVDAWAGSQPNERRRRNARVAIALALGAGLRTSEIAGLTADDCEVTDSGMVLIHAPGYRGGEPRITVVDHRFEDTITDRLAELADLRAAGEPGQYLYCPHLLGRTTDMVNDYMKKKITSSGADCYLQPDLRRLRNTWITGHIKAGVEEGAICQAAGLKSLNQFRDLVDEAAKARAEQSYARLRGGEHRPVLRLVQG | not soluble |
| MPRIITRPFLFSPLTLCISAVASAAKTAVKRKKLFTAVLALSWAFSVTAAERIVVAGGSLTELIYAMGAGERVVGVDETTSYPPETAKLPHIGYWKQLSSEGILSLRPDSVITWQDAGPQIVLDQLRAQKVNVVTLPRVPATLQQMYANIRQLAKTLQVPEQGEALVTQISQRLERVQQNVATKKAPVKAMFILSAGGSAPQVAGKGSVADAILSLAGAENVATHQQYKSYSAESLIAANPEVIVVTSQMVDGDINRLRSIAGITHTAAWKNQRIITVDQNLILGMGPRIADVVESLHQQLWPQ | not soluble |
| MPRIVFDCLIDQPAARHLIERIDALTALLVRDNVVYSAHVDHQPQSPQPDSVREELTTTYLRDRGAETADELSDSVVALDELSLQRFTIVVDGLNGSLNETAMTYSRLLTPAARLSNDALDLTDEQRYEVPAAYPWTVFVSA | not soluble |
| MPRPSAGSHHNDKLHFKKGDTVIVLSGKHKGQTGKVLLALPRDQKVVVEGVNVITKNVKPSMTNPQGGQEQRELALHASKVALVDPETGKATRVRKQIVDGKKVRVAVASGKTID | soluble |
| MPRQRRQGIVYDVREQGTARLIFDENRTKFDGVLETISGETMLVRGRVTSPTDLASTSATTDGSIVMDIDVVDGEEGSAFHVTGVKVLVDEHYAAIDSTAIKFEALDRLIGMKAAVEIQQHISPEIAYDSKEVFIGKMQIHLLTSHRPSPSSRRESVCAENNDIKILEVSDDFLA | not soluble |
| MPRRNPLWLRLPGSSSPSSSSTTEELRLAALSPYSPNDDISSIPDSLEHSPAKTSDDGSEISRANFSSPSSPSRSPSKKVSWSLFDQVSLSGEEFLLPRRFEAIELNAGTSTRSTSISCSATDLLESDHVTIRKISLQDPATARREYRNIILCRLLPHPNILPISEAYEVDSTLYTVSEQMDGRLSDIVEERLTHFVVAKISHQILAAVAMMHQNGIAHGDLTLSTIYVNTDAELRLSSYGKSDDSSEHLDERYRDDLLSIGAIVSRFLMNEEEMFKFSKSRNLKDIDWRVVLEGSSDSGLLDFNARSLLFQLLEGRQSARDLLRHPYFKSFRAPQHQTVERKHTVVGQKTSDEVLDKLREELQRFNPFNMSEIML | not soluble |
| MPSFLEISPDKLNRLIGTPGAPRIIDVRTDEDFALDPRLVPGSIRRDHAEVASWADSIDADAVVVVCHRGAKLSHGVAAYLRHAGIEAESLAGGFEAWAAAGPAVPEAKLSRRDAQGRTVWVTRARPKIDRIACPWLIRRFIDPNAVFLFVPAPEVVAVGERFGAAPFDIEDVFWSHRGELCTFDVMVEEFGLASEPLLRLAQIVRAADTARLDLAPEASGLLAASLGLSRMYSDDLEQLEAGMLLYDAFFRWCRDATEETHNWPAPKKRALEHHHHHH | soluble |
| MPTFLLVNDDGYFSPGINALREALKSLGRVVVVAPDRNLSGVGHSLTFTEPLKMRKIDTDFYTVIDGTPADCVHLGYRVILEEKKPDLVLSGINEGPNLGEDITYSGTVSGAMEGRILGIPSIAFSAFGRENIMFEEIAKVCVDIVKKVLNEGIPEDTYLNVNIPNLRYEEIKGIKVTRQGKRAYKERVFKYIDPYGKPFYWIAAEEFGWHAEEGTDYWAVLNGYVSVTPLHLDLTNYKVMKSIKYLEDSP | soluble |
| MPTIQSVRRTQSGRPGKRAINLSLSADVLDAARQLDINISQVCDTYLREVVRHEQERRWREEHADFITAYNATIEAENLPLDEWRSF | not soluble |
| MPTSNTAFLIQNLPASRTAPHYRAGLDPVKGGLALQRSGGRVYISLLMGKRGFLRREASPKEVLEHCLRLAREVAPPTPKGKRGRPWRYSHALYLALLLFRAFFHLTYRETEASLQDLMEGPFPSHQSLARYALKHLDPKLLEALLERLSRELEAHLAPESSPEGEAASDEAPAHLAALSPP | soluble |
